Residue numbers refer to the chain shown, from its start.
What was measured:
[1] = target: T1, SWSAP1 (hSWS1-SWSAP1, WT);hSWS1 (Homo sapiens;Homo sapiens, UniProt Q6NVH7;Q19AV6 22-250;1-140, |); test: fluorescence polarization; no nucleotide; FPA: 5 nM 6-FAM DNA, 37 C, 2 mM nucleotide where stated (buffer not given in material); EMSA: 0.05 uM 6-FAM DNA, 5%/15% native PAGE; RAD51 filaments: 2 mM ATP; settings: protein: recombinant;recombinant, tags: N-terminal 6xHis-TEV, cleaved;none, copies: 1;1
T1 sequence 1: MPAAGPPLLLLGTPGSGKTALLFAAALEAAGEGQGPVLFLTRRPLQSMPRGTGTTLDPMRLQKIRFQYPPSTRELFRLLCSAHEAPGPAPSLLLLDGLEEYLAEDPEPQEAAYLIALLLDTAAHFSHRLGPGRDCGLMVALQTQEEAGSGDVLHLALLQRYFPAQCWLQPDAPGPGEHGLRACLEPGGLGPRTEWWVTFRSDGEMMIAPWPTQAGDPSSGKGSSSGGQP
T1 sequence 2: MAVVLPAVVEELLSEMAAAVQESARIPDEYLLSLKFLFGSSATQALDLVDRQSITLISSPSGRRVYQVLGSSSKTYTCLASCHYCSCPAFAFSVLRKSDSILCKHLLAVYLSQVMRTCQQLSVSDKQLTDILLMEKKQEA

[2] = target: T2, RAD51;SWSAP1 (hSWS1-SWSAP1, WT);hSWS1 (Homo sapiens;Homo sapiens;Homo sapiens, UniProt Q06609;Q6NVH7;Q19AV6 1-339;22-250;1-140, ||); test: competition (fluorescence intensity); 2 mM ATP; Shu inhibits exchange at 5' end; FPA: 5 nM 6-FAM DNA, 37 C, 2 mM nucleotide where stated (buffer not given in material); EMSA: 0.05 uM 6-FAM DNA, 5%/15% native PAGE; RAD51 filaments: 2 mM ATP; settings: protein: recombinant;recombinant;recombinant; tags: none;N-terminal 6xHis-TEV, cleaved;none; label: 5' 6-FAM
[3] = target: T3, RAD51 (Homo sapiens, UniProt Q06609 1-339); test: competition (fluorescence intensity); 2 mM ATP; 100x unlabeled dT39 lowers signal ~30%; FPA: 5 nM 6-FAM DNA, 37 C, 2 mM nucleotide where stated (buffer not given in material); EMSA: 0.05 uM 6-FAM DNA, 5%/15% native PAGE; RAD51 filaments: 2 mM ATP; settings: protein: recombinant, tags: none, chain copies: 10
[4] = target: RAD51;SWSAP1 D96A (Walker B);hSWS1 (Homo sapiens;Homo sapiens;Homo sapiens, UniProt Q06609;Q6NVH7;Q19AV6 1-339;22-250;1-140, |D117A|); test: competition (fluorescence intensity); 2 mM ATP; D96A stabilizes 5' end like WT; FPA: 5 nM 6-FAM DNA, 37 C, 2 mM nucleotide where stated (buffer not given in material); EMSA: 0.05 uM 6-FAM DNA, 5%/15% native PAGE; RAD51 filaments: 2 mM ATP; settings: protein: recombinant;recombinant;recombinant; tags: none;N-terminal 6xHis-TEV, cleaved;none; label: 5' 6-FAM
[5] = target: T3, RAD51; test: DNase I protection; 2 mM ATP; FPA: 5 nM 6-FAM DNA, 37 C, 2 mM nucleotide where stated (buffer not given in material); EMSA: 0.05 uM 6-FAM DNA, 5%/15% native PAGE; RAD51 filaments: 2 mM ATP; settings: protein: recombinant, tags: none, chain copies: 10
[6] = target: T2, RAD51;SWSAP1 (hSWS1-SWSAP1, WT);hSWS1; test: DNase I protection; 2 mM ATP; Shu increases digestion of filament; FPA: 5 nM 6-FAM DNA, 37 C, 2 mM nucleotide where stated (buffer not given in material); EMSA: 0.05 uM 6-FAM DNA, 5%/15% native PAGE; RAD51 filaments: 2 mM ATP; settings: protein: recombinant;recombinant;recombinant, tags: none;N-terminal 6xHis-TEV, cleaved;none
[7] = target: T4, SWSAP1 K18A (Walker A);hSWS1 (Homo sapiens;Homo sapiens, UniProt Q6NVH7;Q19AV6 22-250;1-140, K39A|); test: fluorescence polarization; 2 mM ATP; FPA: 5 nM 6-FAM DNA, 37 C, 2 mM nucleotide where stated (buffer not given in material); EMSA: 0.05 uM 6-FAM DNA, 5%/15% native PAGE; RAD51 filaments: 2 mM ATP; settings: protein: recombinant;recombinant, tags: N-terminal 6xHis-TEV, cleaved;none, copies: 1;1
T4 sequence 1: T1 sequence 1 with K18A
T4 sequence 2: T1 sequence 2

[8] = target: T5, SWSAP1 D96A (Walker B);hSWS1 (Homo sapiens;Homo sapiens, UniProt Q6NVH7;Q19AV6 22-250;1-140, D117A|); test: fluorescence polarization; no nucleotide; FPA: 5 nM 6-FAM DNA, 37 C, 2 mM nucleotide where stated (buffer not given in material); EMSA: 0.05 uM 6-FAM DNA, 5%/15% native PAGE; RAD51 filaments: 2 mM ATP; settings: protein: recombinant;recombinant, tags: N-terminal 6xHis-TEV, cleaved;none, copies: 1;1
T5 sequence 1: T1 sequence 1 with D96A
T5 sequence 2: T1 sequence 2

[9] = target: T4, SWSAP1 K18A (Walker A);hSWS1; test: as above; settings: protein: recombinant;recombinant, tags: N-terminal 6xHis-TEV, cleaved;none, copies: 1;1
[10] = target: T4, SWSAP1 K18A (Walker A);hSWS1; test: fluorescence polarization; 2 mM ADP; FPA: 5 nM 6-FAM DNA, 37 C, 2 mM nucleotide where stated (buffer not given in material); EMSA: 0.05 uM 6-FAM DNA, 5%/15% native PAGE; RAD51 filaments: 2 mM ATP; settings: protein: recombinant;recombinant, tags: N-terminal 6xHis-TEV, cleaved;none, copies: 1;1
[11] = target: T5, SWSAP1 D96A (Walker B);hSWS1; test: fluorescence polarization; 2 mM ATP; FPA: 5 nM 6-FAM DNA, 37 C, 2 mM nucleotide where stated (buffer not given in material); EMSA: 0.05 uM 6-FAM DNA, 5%/15% native PAGE; RAD51 filaments: 2 mM ATP; settings: protein: recombinant;recombinant, tags: N-terminal 6xHis-TEV, cleaved;none, copies: 1;1
[12] = target: T1, SWSAP1 (hSWS1-SWSAP1, WT);hSWS1; test: as above; settings: protein: recombinant;recombinant, tags: N-terminal 6xHis-TEV, cleaved;none, copies: 1;1
[13] = target: T5, SWSAP1 D96A (Walker B);hSWS1; test: fluorescence polarization; 2 mM ADP; FPA: 5 nM 6-FAM DNA, 37 C, 2 mM nucleotide where stated (buffer not given in material); EMSA: 0.05 uM 6-FAM DNA, 5%/15% native PAGE; RAD51 filaments: 2 mM ATP; settings: protein: recombinant;recombinant, tags: N-terminal 6xHis-TEV, cleaved;none, copies: 1;1
[14] = target: T1, SWSAP1 (hSWS1-SWSAP1, WT);hSWS1; test: as above; settings: protein: recombinant;recombinant, tags: N-terminal 6xHis-TEV, cleaved;none, copies: 1;1
[15] = label: 5' 6-FAM on strand 1, blunt
[16] = label: 3' 6-FAM on strand 1, 3' overhang 20 nt
[17] = label: 3' 6-FAM on strand 1, 5' overhang 20 nt
[18] = label: 3' 6-FAM on strand 1, blunt
[19] = label: 3' 6-FAM on strand 1, fork 1:2, 19 bp duplex, 20 nt arms

T3 sequence (Q06609 whole entry): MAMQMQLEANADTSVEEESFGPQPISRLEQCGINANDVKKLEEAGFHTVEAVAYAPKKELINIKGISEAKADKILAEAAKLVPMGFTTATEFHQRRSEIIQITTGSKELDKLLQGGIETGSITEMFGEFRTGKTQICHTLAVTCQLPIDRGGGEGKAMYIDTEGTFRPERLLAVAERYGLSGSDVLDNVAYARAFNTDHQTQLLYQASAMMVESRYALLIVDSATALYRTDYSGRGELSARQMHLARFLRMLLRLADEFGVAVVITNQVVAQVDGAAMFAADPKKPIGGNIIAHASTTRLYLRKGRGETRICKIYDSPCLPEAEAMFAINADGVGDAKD
T2 sequence (Q06609 whole entry, one chain of several): as the sequence (Q06609 whole entry) above
Sequence of RAD51;SWSAP1 D96A (Walker B);hSWS1 (Q06609 whole entry, stated change not applied, one chain of several): as the sequence (Q06609 whole entry) above

B1: ds21 (dsDNA)
DNA 1: ACTTACAGCACAGCGGTTTTT
DNA 2: AAAAACCGCTGTGCTGTAAGT
Kd [1, 15]: 43.7 ± 0.4 µM

TTTTTTTTTTTTTTTTTTTTTTTTTTTTTTTTTTTTTTT (ssDNA) [*5'-(T)39]
binding result [2]: binds | binding result ([3]; label: 5' 6-FAM): binds | binding result [4]: binds

TTTTTTTTTTTTTTTTTTTTTTTTTTTTTTTTTTTTTTT (ssDNA) [*3'-(T)39]
binding result ([3]; label: 3' 6-FAM): binds

TTTTTTTTTTTTTTTTTTTTTTTTTTTTTT (ssDNA) [*5'-(T)30]
binding result ([5]; label: 5' 6-FAM): binds | binding result ([6]; label: 5' 6-FAM): binds

ACTTACAGCACAGCGGTTTTT (ssDNA) [ss21]
Kd ([1]; label: 5' 6-FAM): 10.1 ± 0.9 µM

B2: ds26 (dsDNA)
DNA 1: ACTGCCCTTACAGCACAGCGGTTTTT
DNA 2: AAAAACCGCTGTGCTGTAAGGGCAGT
Kd [1, 15]: 18.8 ± 0.7 µM

ACTGCCCTTACAGCACAGCGGTTTTT (ssDNA) [ss26]
Kd ([1]; label: 5' 6-FAM): 9.9 ± 0.6 µM

ACTGCCCTTACAGCACAGCGGTTTTTTTTTT (ssDNA) [ss31]
Kd ([1]; label: 5' 6-FAM): 5.7 ± 0.3 µM

TTTTTTTTTTTTTTTTTTTTTTTTTTTTTT (ssDNA) [*3'-(T)30]
binding result ([5]; label: 3' 6-FAM): binds | binding result ([6]; label: 3' 6-FAM): binds

B3: 3'-overhang (dsDNA)
DNA 1: CTTGACAAGCTTGCGCACT
DNA 2: AGTGCGCAAGCTTGTCAAGGCACTTTTTTTTTTTTTTTT
Kd [7, 16]: 7.3 ± 0.6 µM | Kd [8, 16]: 11 ± 0.8 µM | Kd [1, 16]: 14.9 ± 0.7 µM | Kd [9, 16]: 7.1 ± 0.2 µM | Kd [10, 16]: 8.7 ± 0.4 µM

TTTTTTTTTTTTTTTTTTTTCTTGACAAGCTTGCGCACT (ssDNA) [ss39]
Kd ([11]; label: 3' 6-FAM): 7.8 ± 0.4 µM | Kd ([12]; label: 3' 6-FAM): 6.9 ± 0.7 µM | Kd ([7]; label: 3' 6-FAM): 9.5 ± 0.7 µM | Kd ([8]; label: 3' 6-FAM): 10.4 ± 0.7 µM | Kd ([1]; label: 3' 6-FAM): 11.2 ± 0.4 µM | Kd ([9]; label: 3' 6-FAM): 9.9 ± 0.4 µM | Kd ([13]; label: 3' 6-FAM): 3.9 ± 0.3 µM | Kd ([14]; label: 3' 6-FAM): 3.2 ± 0.2 µM | Kd ([10]; label: 3' 6-FAM): 7.4 ± 0.2 µM

B4: 5'-overhang (dsDNA)
DNA 1: TTTTTTTTTTTTTTTTTTTTCTTGACAAGCTTGCGCACT
DNA 2: AGTGCGCAAGCTTGTCAAG
Kd [11, 17]: 4.3 ± 0.4 µM | Kd [12, 17]: 3.6 ± 0.1 µM | Kd [7, 17]: 3.9 ± 0.2 µM | Kd [8, 17]: 3.8 ± 0.2 µM | Kd [1, 17]: 3.6 ± 0.2 µM | Kd [9, 17]: 3.9 ± 0.3 µM | Kd [13, 17]: 5.1 ± 0.2 µM | Kd [14, 17]: 8.9 ± 0.4 µM | Kd [10, 17]: 3.4 ± 0.3 µM

B5: ds39 (dsDNA)
DNA 1: B4 DNA 1
DNA 2: AGTGCGCAAGCTTGTCAAGAAAAAAAAAAAAAAAAAAAA
Kd [7, 18]: 10 ± 0.9 µM | Kd [8, 18]: 13.6 ± 0.6 µM | Kd [1, 18]: 19.2 ± 0.9 µM | Kd [9, 18]: 12.2 ± 1 µM | Kd [10, 18]: 8.73 ± 0.7 µM

B6: Fork (dsDNA)
DNA 1: B4 DNA 1
DNA 2: B3 DNA 2
Kd [11, 19]: 22.4 ± 0.4 µM | Kd [12, 19]: 18.6 ± 0.7 µM | Kd [7, 19]: 8.2 ± 0.4 µM | Kd [8, 19]: 7.4 ± 0.4 µM | Kd [1, 19]: 7.7 ± 0.5 µM | Kd [9, 19]: 4.6 ± 0.4 µM | Kd [13, 19]: 33.9 ± 0.9 µM | Kd [14, 19]: 25.6 ± 0.7 µM | Kd [10, 19]: 7 ± 0.8 µM

Source: paper PMC12167799, “The role of human Shu complex in ATP-dependent regulation of RAD51 filaments during homologous recombination–associated DNA damage response”
